Reference: US20130101602A1 (ARGOS THERAPEUTICS, published 2013)
Positions count from the first letter of the chain named. In names and notes the source's numbering stands.

What was measured:
recombinant human IFN-αG [1] = target: T1, recombinant human IFN-αG (human, UniProt P01569 24-189); test: cell-based or functional assay
recombinant human IFN-αF [2] = target: T2, recombinant human IFN-αF (human, UniProt P01568 24-189); test: cell-based or functional assay
recombinant human IFN-αC [3] = target: T3, recombinant human IFN-αC (human, UniProt P01566 24-189); test: cell-based or functional assay
[4] = target: various IFN-α subtypes (those inhibited in the reporter gene assay of FIG. 5); test: cell-based or functional assay
recombinant human IFN-α1 = target: T4, recombinant human IFN-α1 (human, UniProt P0DY56 24-189); test: SPR (Biacore), mAb immobilised, IFN-α injected
T4 construct: both come from gene 1; also called hIFN-α1; subtype 1 (Ala114)
Description: (§1) The purified monoclonal antibodies were immobilized in individual flow cells on a CM5 type sensor chip. Immobilizations were performed using a standard amine coupling procedure, aiming for an immobilization level of 1000 Resonance Units (RU).
(§2) HBS-EP pH 7.4 (10 mM HEPES, 150 mM NaCl, 3 mM EDTA and 0.005% Polysorbate P20) was used as running buffer, and diluent for the recombinant IFN-α's. Association (injection) was 4 min., followed by a 12 to 30 min. dissociation period. Flow rate was 50 μl/min. Experiments were performed at 25° C. Detection in all flow cells simultaneously. Flow cell #1 contained no immobilized antibody, and was used for subtraction of background and bulk.
(§3) Data was inspected for mass-transport limitations prior to calculation of the kinetic parameters.

recombinant human IFN-αF [5] = target: T2, recombinant human IFN-αF; test: cell-based or functional assay; remark: listed apart in the source
recombinant human IFN-αC [6] = target: T3, recombinant human IFN-αC; test: cell-based or functional assay; remark: listed apart in the source
[7] = target: T5, recombinant human IFN-α4a (human, UniProt P05014 24-189); test: cell-based or functional assay
[8] = target: T6, recombinant human IFN-αJ1 (human, UniProt P01567 24-189); test: SPR (Biacore), mAb amine-coupled on CM5 chip, IFN-α injected, 1:1 Langmuir fit
T6 construct: also called hIFN-αJ1
Description: as §1, §2, §3

recombinant human IFN-αI = target: T7, recombinant human IFN-αI (human, UniProt P01571 24-189); test: as above
T7 construct: also called hIFN-αI
Description: as §1, §2, §3

recombinant human IFN-αG [9] = target: T1, recombinant human IFN-αG; test: as above
Description: as §1, §2, §3

[10] = target: T8, recombinant human IFN-αH2 (human, UniProt P01570 24-189); test: as above
T8 construct: also called hIFN-αH2
Description: as §1, §2, §3

recombinant human IFN-αK = target: T9, recombinant human IFN-αK (human, UniProt P05013 24-189); test: as above
T9 construct: also called hIFN-αK
Description: as §1, §2, §3

[11] = target: T10, recombinant human IFN-αWA (human, UniProt P05015 24-189); test: as above
T10 construct: also called hIFN-αWA
Description: as §1, §2, §3

recombinant human IFN-αC [12] = target: T3, recombinant human IFN-αC; test: as above
Description: as §1, §2, §3

[13] = target: T5, recombinant human IFN-α4a; test: as above
[14] = target: recombinant human IFN-αA (human) (UniProt P01563); test: as above
[15] = target: recombinant human IFN-αA (human) (UniProt P01563); test: SPR (Biacore), KD normalised to hzACO-1
[16] = target: T6, recombinant human IFN-αJ1; test: cell-based or functional assay
recombinant human IFN-αG [17] = target: T1, recombinant human IFN-αG; test: cell-based or functional assay; remark: listed apart in the source
recombinant human IFN-αF [18] = target: T2, recombinant human IFN-αF; test: cell-based or functional assay; remark: listed apart in the source
[19] = target: recombinant human IFN-αA (human) (UniProt P01563); test: cell-based or functional assay

T2 sequence (P01568 24-189): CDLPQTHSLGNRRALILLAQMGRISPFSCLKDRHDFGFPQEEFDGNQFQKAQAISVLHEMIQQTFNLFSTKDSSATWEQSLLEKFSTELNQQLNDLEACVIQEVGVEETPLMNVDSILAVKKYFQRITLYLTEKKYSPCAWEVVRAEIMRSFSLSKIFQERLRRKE
T1 sequence (P01569 24-189): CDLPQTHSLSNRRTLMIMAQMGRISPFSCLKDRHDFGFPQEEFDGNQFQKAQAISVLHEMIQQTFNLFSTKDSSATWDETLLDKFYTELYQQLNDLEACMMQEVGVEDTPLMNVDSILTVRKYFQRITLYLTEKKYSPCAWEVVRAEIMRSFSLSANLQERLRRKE
T3 sequence (P01566 24-189): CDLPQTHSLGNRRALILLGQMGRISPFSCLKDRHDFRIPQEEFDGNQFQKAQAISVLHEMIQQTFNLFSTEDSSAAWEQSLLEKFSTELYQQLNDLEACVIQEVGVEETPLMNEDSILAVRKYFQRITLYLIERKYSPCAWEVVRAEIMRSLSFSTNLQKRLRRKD
recombinant human IFN-αA (human), sequence (P01563 other isoform, or with tags, fused parts or gaps): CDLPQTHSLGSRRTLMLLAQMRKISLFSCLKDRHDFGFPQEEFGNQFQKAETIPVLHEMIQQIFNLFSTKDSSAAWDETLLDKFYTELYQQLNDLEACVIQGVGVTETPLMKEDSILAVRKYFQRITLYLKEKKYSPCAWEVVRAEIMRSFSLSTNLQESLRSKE
T6 sequence (P01567 24-189 limits assumed): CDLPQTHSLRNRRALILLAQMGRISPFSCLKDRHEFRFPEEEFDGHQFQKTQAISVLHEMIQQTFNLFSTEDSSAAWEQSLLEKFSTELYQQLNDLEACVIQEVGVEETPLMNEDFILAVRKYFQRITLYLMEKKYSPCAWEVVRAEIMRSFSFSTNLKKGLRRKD
T5 sequence (P05014 24-189): as the sequence (P01566 24-189) above, with G19A, P26H, R37G, I38F, Q40E, N46H, I132T, R134K counted along it
T9 sequence (P05013 24-189): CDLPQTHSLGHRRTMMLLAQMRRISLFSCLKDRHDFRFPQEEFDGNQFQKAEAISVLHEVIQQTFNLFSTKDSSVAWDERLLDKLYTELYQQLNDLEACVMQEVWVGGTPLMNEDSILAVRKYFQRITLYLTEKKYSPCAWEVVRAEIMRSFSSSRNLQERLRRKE
T8 sequence (P01570 24-189): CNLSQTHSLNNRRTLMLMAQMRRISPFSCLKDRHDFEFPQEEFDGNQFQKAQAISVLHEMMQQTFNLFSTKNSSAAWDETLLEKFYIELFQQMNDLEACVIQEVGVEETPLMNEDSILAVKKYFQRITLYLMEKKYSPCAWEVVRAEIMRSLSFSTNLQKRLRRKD
T10 sequence (P05015 24-189): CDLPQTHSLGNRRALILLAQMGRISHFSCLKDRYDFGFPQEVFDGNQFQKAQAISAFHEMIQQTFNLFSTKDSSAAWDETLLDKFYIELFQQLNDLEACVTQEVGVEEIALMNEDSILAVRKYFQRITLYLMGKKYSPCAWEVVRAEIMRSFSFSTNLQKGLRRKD
T4 sequence (P0DY56 entry or part of it limits assumed): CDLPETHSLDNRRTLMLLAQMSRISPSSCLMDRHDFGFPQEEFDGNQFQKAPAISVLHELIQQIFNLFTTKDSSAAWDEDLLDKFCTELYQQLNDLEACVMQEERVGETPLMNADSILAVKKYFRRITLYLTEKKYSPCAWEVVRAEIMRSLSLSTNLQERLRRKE
T7 sequence (P01571 24-189): as the sequence (P01566 24-189) above, with G19A, R37G, I38L, A51T, D95N, V106M, I132T, R134K, R161I counted along it

B1: hzACO-1 (humanized ACO-1) (antibody, human IgG4, V domains shown)
VH: QVQLVQSGAEVKKPGASVKVSCKASGYTFTNYWMHWVRQAPGQGLEWMGEINPSHGRTIYAQKFQGRVTMTRDTSTSTVYMELSSLRSEDTAVYYCARGGLGPAWFAYWGQGTLVTVSS
VL: EIVLTQSPATLSLSPGERATLSCSAGSSVDSSYLYWYQQKPGQAPRLLIYSTSNLASGIPARFSGSGSGTDFTLTISSLEPEDFAVYYCHQWSSYPFTFGQGTKLEIKR
notes: also called hzACO-1 IgG4; hzACO-1-IgG4
Q: With B1 as the binder, how does the “IC50 (read off the curve) (reporter gene assay)” value (shortened to “IC50 … (reporter gene assay)”) (recombinant human IFN-αG [1]) read?
A: ~0.05 µg/mL

Q: What about the “IC50 … (reporter gene assay)” value (recombinant human IFN-αF [2]) of the same binder?
A: ~0.3 µg/mL

Q: And the “IC50 … (reporter gene assay)” value (recombinant human IFN-αC [3])?
A: ~0.03 µg/mL

Q: And the IC50, reporter gene (Mx promoter-luciferase) assay in 93D7 cells [4]?
A: 0.028 to 0.314 µg/mL

Q: Does B1 bind (recombinant human IFN-α1)?
A: no binding

Q: What about the “IC50 (reporter gene assay, Mx promoter-luciferase in 93D7 cells)” value (recombinant human IFN-αF [5]) of the same binder?
A: 0.277 µg/mL

Q: And the “IC50 (read off the curve) (CPE assay)” value (recombinant human IFN-αC [6])?
A: ~0.008 µg/mL

Q: What about the “IC50 (read off the curve) (CPE assay)” value [7] of the same binder?
A: ~0.06 µg/mL

Q: What about the Kd [8] of the same binder?
A: 4.81 nM

Q: And the Kd (recombinant human IFN-αI)?
A: 2.81 nM

Q: And the Kd (recombinant human IFN-αG [9])?
A: 0.92 nM

Q: And the Kd [10]?
A: 3.21 nM

Q: What about the Kd (recombinant human IFN-αK) of the same binder?
A: 1.44 nM

Q: What about the Kd [11] of the same binder?
A: 4.1 nM

Q: What about the Kd (recombinant human IFN-αC [12]) of the same binder?
A: 1.05 nM

Q: What about the Kd [13] of the same binder?
A: 3.45 nM

B2: hzACO-1-A93V (antibody, human IgG4, name in Kabat numbering, V domains shown)
VH: B1 VH with A97V
VL: B1 VL
Q: Which “IC50 (reporter gene assay, Mx promoter-luciferase in 93D7 cells)” value (recombinant human IFN-αF [5]) does the source give for B2 here?
A: 0.156 µg/mL

B3: hzACO-1-kabat CDRH2 (antibody, V domains shown)
VH: B1 VH with A61N, Q62E, K63N, Q65K, G66S
VL: EIVLTQSPATLSLSPGERATLSCSAGSSVDSSYLYWYQQKPGQAPRLLIYSTSNLASGIPARFSGSGSGTDFTLTISSLEPEDFAVYYCHQWSSYPFTFGQGTKLEIK
Q: Which koff [14] does the source give for B3 here?
A: 0.000341 s⁻¹

Q: What about the kon [14] of the same binder?
A: 205000 M⁻¹ s⁻¹

Q: What about the KD mAb/KD hzACO-1 [15] of the same binder?
A: 0.9

Q: What about the “IC50 value relative to hzACO-1 (RG assay)” value [16] of the same binder?
A: 1.15

Q: And the “IC50 value relative to hzACO-1 (RG assay)” value (recombinant human IFN-αG [17])?
A: 0.78

Q: And the “IC50 value relative to hzACO-1 (RG assay)” value (recombinant human IFN-αF [18])?
A: 0.95

Q: And the IC50 value relative to hzACO-1 (RG assay) [19]?
A: 0.95

B4: ACO-1 (murine anti-IFN-α antibody, recombinant) (antibody, V domains shown)
VH: QVQLQQPGAELVKPGASVKLSCKASGYTFTNYWMHWVKQRPGQGLEWIGEINPSHGRTIYNENFKSKATLTVDKSSITAFMQLSSLTSEDSAVYFCARGGLGPAWFAYWGQGTLVTVSA
VL: QIVLTQSPAIMSASPGEKVTLTCSAGSSVDSSYLYWYQQKPGSSPKLWIYSTSNLASGVPARFSGSGSGTSYSLTISSMEAEDAASYFCHQWSSYPFTFGSGTKLEIKR
Q: B4 was tested. Which “IC50 value relative to hzACO-1 (RG assay)” value [16] did it give?
A: 0.58

Q: What about the “IC50 value relative to hzACO-1 (RG assay)” value (recombinant human IFN-αG [17]) of the same binder?
A: 0.56

Q: And the “IC50 value relative to hzACO-1 (RG assay)” value (recombinant human IFN-αF [18])?
A: 0.82
